Experimental findings from patent US11203633B2, “Polynucleotides encoding antibodies or antigen binding fragments thereof that bind pseudomonas perv” (priority 2011, dated 2021) are described below.

In assay [1] the test system is P. aeruginosa (6077 exoU+; 6206) lysis of rabbit red blood cells. Nature of the assay: Rabbit red blood cell (RBC) lysis inhibition assay. The assay is classed as cell-based, Pseudomonas aeruginosa. Particulars: strain 6077; FIG. 12D-E. On the procedure:
Percent inhibition of cytotoxicity analysis was analysed for the parental V2L2 mAb, mAb166 (positive control) and R347 (negative control), where the antibodies were administered to cultured broncho-epithelial cell line A549 combined with log-phase P. aeruginosa strain 6077 (exoU+) at a MOI of approximately 10. A549 lysis was assayed by measuring released lactate dehydrogenase (LDH) activity and lysis in the presence of mAbs was compared to wells without mAb to determine percent inhibition. The V2L2 mAb, mAb166 (positive control) and R347 (negative control) were evaluated for their ability to prevent lysis of RBCs, where the antibodies were mixed with log-phase P. aeruginosa 6077 (exoU^+) and washed rabbit red blood cells (RBCs) and incubated for 2 hours at 37°. Intact RBCs were pelleted and the extent of lysis determined by measuring the OD405 of the cell-free supernatant. Lysis in the presence of anti-PcrV mAbs was compared to wells without mAb to determine percent inhibition. The positive control antibody, mAb166, is a previously characterized anti-PcrV antibody (J Infect Dis. 186: 64-73 (2002), Crit Care Med. 40: 2320-2326 (2012)).

The next assay deals with rPcrV protein. Nature of the assay: Binding kinetics, Bio-Rad ProteOn XPR36. Details: species or system Pseudomonas aeruginosa. The settings on record: antibody captured, rPcrV injected; FIG. 12G-H. The protocol:
Binding kinetics of V2L2-GL and V2L2-MD were measured using a Bio-Rad ProteOn™ XPR36 instrument. Antibodies were captured on a GLC bisensor chip using anti-human IgG reagents. rPcrV protein was injected at multiple concentrations and the dissociation phase followed for 600 seconds. Data was captured and analyzed using ProteOn Manager software. […] The clone V2L2-MD had increased Kd by 2-3 folds over V2L2-GL.

The test system of assay [2] is P. aeruginosa strains (PAO1, 33356, 6294, 6077, 6206, PA103A). Nature of the assay: Acute pneumonia model in mice, survival. The settings on record: W4-RAD 0.2 mg/kg. The assay is classed as in vivo, Pseudomonas aeruginosa.
The subject of assay [3] is P. aeruginosa strains (PAO1, 33356, 6294, 6077, 6206). The assay can be described thus: Acute pneumonia model in mice, organ burden (CFU in lung, spleen, kidneys). In kind it is in vivo, Pseudomonas aeruginosa. The settings on record: 6294 2.5×10^7 CFU; bispecifics 0.7 mg/kg, W4-RAD 0.5 mg/kg; FIG. 23A. The protocol:
(§1) Antibodies or PBS were administered 24 hours before infection in each model. P. aeruginosa acute pneumonia, keratitis, and thermal injury infection models were performed as described (DiGiandomenico, A., et al., Proc Natl Acad Sci USA 104, 4624-4629 (2007)), with modifications. In the acute pneumonia model, BALB/c mice (The Jackson Laboratory) were infected with P. aeruginosa strains suspended in a 0.05 ml inoculum. In the thermal injury model, CF-1 mice (Charles River) received a 10% total body surface area burn with a metal brand heated to 92° C. for 10 seconds. Animals were infected subcutaneously with P. aeruginosa strain 6077 at the indicated dose. For organ burden experiments, acute pneumonia was induced in mice followed by harvesting of lungs, spleens, and kidneys 24 hours post-infection for determination of CFU.
Organ burden of Pseudomonas-infected mice was also studied in response to administration of V2L2. FIG. 14 (A) Mice were treated with either 1 mg/kg R347 (control), or 1 mg/kg, 0.2 mg/kg, or 0.07 mg/kg of V2L2 and then were infected intranasally with 1.2×10^6 cfu of Pseudomonas 6206. FIG. 14 (B) Mice were also treated with either 15 mg/kg R347 (negative control); 15.0 mg/kg, 5.0 mg/kg, or 1.0 mg/kg mAb166 (positive control); or 5.0 mg/kg, 1.0 mg/kg, or 0.2 mg/kg V2L2 and then were infected intranasally with 5.5×10^6 cfu of Pseudomonas 6206.
The in vivo effect of combination administration of anti-Psl and anti-PcrV binding domains was further studied in mice using the antibodies V2L2 and WapR-004 (RAD). Groups of mice were treated with R347 (2.1 mg/kg—negative control), V2L2 (0.1 mg/kg), W4-RAD (0.5 mg/kg), or V2L2/W4 combination (either 0.1, 0.5, 1.0 or 2.0 mg/kg each). Twenty-four hours post-administration of antibody, all mice were infected with an inoculum containing 5.25×10^5 cfu 6206 (O11-ExoU+). Twenty-four hours post infection, lungs, spleens, and kidneys were harvested, homogenized, and plated for colony forming unit (CFU) identification per gram of tissue.

In assay [4] the test system is P. aeruginosa strain 6077 (O11-cytotoxic). The assay can be described thus: Corneal infection (ocular keratitis) model in mice. Particulars: C3H/HeN mice; IP, 16 hours prior to infection with 6077 1×10^6 CFU; graded at 48 h; FIG. 8H. In kind it is in vivo, Pseudomonas aeruginosa. On the procedure:
as §1
Cam-003 and WapR-004 efficacy was next evaluated in a P. aeruginosa corneal infection model which emphasizes the pathogens ability to attach and colonize damaged tissue. […] FIG. 8 (H): The activity of anti-Psl and anti-PcrV monoclonal antibodies V2L2 was tested in a P. aeruginosa mouse ocular keratitis model. […]

B1: V2L2-MD: optimized V2L2-GL mAb; germlined lead optimized anti-PcrV antibody (antibody, V domains shown)
VH: EMQLLESGGGLVQPGGSLRLSCAASGFTFSSYAMNWVRQAPGEGLEWVSAITISGITAYYTDSVKGRFTISRDNSKNTLYLQMNSLRAGDTAVYYCAKEEFLPGTHYYYGMDVWGQGTTVTVSS
VL: AIQMTQSPSSLSASVGDRVTITCRASQGIRNDLGWYQQKPGKAPKLVIYSASTLQSGVPSRFSGSGSGTDFTLSISSLQPDDFATYYCLQDYNYPWTFGQGTKVEIK
modifications: V2L2-MD VH; V2L2-MD and V2L2-GL VL
On to B1, for which the “prevention of RBC lysis” value in assay [1] is listed as “demonstrated prevention of RBC lysis”. In addition, the “change of Kd over V2L2-GL” value on rPcrV protein is 2-3 folds.

B2: WapR-004RAD: identical to WapR-004 except for an amino acid substitution G98A of the VH; VH SEQ ID NO:74, VL SEQ ID NO:12 (antibody, V domains shown)
VH: EVQLLESGPGLVKPSETLSLTCNVAGGSISPYYWTWIRQPPGKGLELIGYIHSSGYTDYNPSLKSRVTISGDTSKKQFSLHVSSVTAADTAVYFCARADWDLLHALDIWGQGTLVTVSS
VL: EIVLTQSPSSLSTSVGDRVTITCRASQSIRSHLNWYQQKPGKAPKLLIYGASNLQSGVPSRFSGSGSGTDFTLTISSLQPEDFATYYCQQSYSFPLTFGGGTKLEIK
modifications: WapR-004RAD VH; WapR-004 & WarR-004RAD VL
Turning to B2, the animals survived entry in assay [2] (6206, monitored 120 hours, FIG. 21A) is recorded as “Approximately 90%”. For the same molecule, in assay [2] (6294, FIG. 24), the effect on survival entry was “did not affect survival”. The “organ burden in lung, spleen, kidney” value in assay [3] was “had no effect on decreasing organ burden”. The “corneal pathology and CFU in total eye homogenates vs R347” value in assay [4] was “significantly less pathology and reduced bacterial colony forming units (CFU) in total eye homogenates”.
